Source: publication PMC2680492 (The Journal of neuroscience : the official journal of the …, 2008)
One block for each binder: values may come before it.

Assays:
Experiment in all cases: pull-down
His×6-DD1-FLAG = biological target: T1, His×6-DD1-FLAG (human, UniProt Q9UBN7 106-439)
T1 sequence (looked up): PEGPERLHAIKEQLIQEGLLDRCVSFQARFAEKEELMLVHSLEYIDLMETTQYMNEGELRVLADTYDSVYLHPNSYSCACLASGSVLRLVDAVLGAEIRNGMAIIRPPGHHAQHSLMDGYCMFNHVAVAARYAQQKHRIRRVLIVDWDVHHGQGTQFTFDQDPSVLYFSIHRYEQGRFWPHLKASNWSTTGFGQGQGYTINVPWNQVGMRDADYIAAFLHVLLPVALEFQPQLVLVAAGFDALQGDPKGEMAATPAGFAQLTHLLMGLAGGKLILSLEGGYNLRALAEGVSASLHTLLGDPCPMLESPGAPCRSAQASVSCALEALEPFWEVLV

His×6-HDAC6-FLAG = biological target: T2, His×6-HDAC6-FLAG (human, UniProt Q9UBN7 1-1215)
T2 sequence (looked up): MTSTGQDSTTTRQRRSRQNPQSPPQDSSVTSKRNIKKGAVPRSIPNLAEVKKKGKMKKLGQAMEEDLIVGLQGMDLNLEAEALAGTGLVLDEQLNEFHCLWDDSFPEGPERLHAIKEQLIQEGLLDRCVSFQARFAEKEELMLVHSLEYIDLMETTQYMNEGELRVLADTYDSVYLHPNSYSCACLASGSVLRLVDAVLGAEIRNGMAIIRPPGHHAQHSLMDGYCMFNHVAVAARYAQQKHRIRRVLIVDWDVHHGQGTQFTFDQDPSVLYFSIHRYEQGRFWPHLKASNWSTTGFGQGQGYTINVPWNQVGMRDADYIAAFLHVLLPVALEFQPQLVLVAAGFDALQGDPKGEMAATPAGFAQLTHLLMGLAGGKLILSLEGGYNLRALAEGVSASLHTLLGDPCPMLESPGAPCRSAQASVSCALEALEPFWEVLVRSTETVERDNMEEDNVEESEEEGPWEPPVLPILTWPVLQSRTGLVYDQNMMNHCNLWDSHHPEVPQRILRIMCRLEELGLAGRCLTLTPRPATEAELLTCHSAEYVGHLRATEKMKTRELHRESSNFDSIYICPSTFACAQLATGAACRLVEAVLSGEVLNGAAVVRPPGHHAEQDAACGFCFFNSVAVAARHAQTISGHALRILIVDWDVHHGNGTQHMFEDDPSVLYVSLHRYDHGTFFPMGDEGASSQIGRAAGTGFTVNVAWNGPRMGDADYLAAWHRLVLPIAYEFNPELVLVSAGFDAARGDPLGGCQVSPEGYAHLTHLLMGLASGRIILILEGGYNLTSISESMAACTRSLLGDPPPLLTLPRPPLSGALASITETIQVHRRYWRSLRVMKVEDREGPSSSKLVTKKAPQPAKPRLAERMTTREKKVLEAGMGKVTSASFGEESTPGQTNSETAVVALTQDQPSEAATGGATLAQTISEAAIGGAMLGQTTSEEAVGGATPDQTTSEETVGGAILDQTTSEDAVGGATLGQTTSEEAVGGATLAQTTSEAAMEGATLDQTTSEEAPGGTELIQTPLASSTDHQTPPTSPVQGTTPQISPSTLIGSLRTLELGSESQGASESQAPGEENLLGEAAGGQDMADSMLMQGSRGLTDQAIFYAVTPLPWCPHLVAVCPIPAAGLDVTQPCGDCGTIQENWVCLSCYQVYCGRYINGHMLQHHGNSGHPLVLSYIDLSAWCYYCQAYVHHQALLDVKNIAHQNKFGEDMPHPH

His×6-DD2-FLAG = biological target: T3, His×6-DD2-FLAG (human, UniProt Q9UBN7 440-840)
T3 sequence (looked up): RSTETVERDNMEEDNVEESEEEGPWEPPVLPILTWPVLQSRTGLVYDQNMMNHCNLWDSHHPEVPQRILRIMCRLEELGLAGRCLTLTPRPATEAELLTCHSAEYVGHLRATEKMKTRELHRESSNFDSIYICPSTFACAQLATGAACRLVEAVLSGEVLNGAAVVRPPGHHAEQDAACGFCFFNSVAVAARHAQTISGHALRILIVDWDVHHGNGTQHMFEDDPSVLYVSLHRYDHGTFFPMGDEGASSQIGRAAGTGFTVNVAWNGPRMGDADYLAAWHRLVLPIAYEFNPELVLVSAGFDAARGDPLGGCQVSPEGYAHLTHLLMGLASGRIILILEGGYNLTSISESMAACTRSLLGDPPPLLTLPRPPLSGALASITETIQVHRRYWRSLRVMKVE

binding result (His×6-DD1-FLAG): binds | binding result (His×6-HDAC6-FLAG): binds
B1: GST-tagged parkin Linker domain (L) (domain or fragment, human, UniProt O60260 77-237, looked up)
chain: GQEMNATGGDDPRNAAGGCEREPQSLTRVDLSSSVLPGDSVGLAVILHTDSRKDSPPAGSPAGRSIYNSFYVYCKGPCQRVQPGKLRVQCSTCRQATLTLTQGPSCWDDVLIPNRMSGECQSPHCPGTSAEFFFKCGAHPTSDKETSVALHLIATNSRNIT

binding result (His×6-DD2-FLAG): binds | binding result (His×6-HDAC6-FLAG): binds
B2: GST-tagged parkin RING2 domain (R2) (domain or fragment, human, UniProt O60260 395-465, looked up)
chain: ERAAEQARWEAASKETIKKTTKPCPRCHVPVEKNGGCMHMKCPQPQCRLEWCWNCGCEWNRVCMGDHWFDV

binding result (His×6-DD1-FLAG): binds | binding result (His×6-HDAC6-FLAG): binds
B3: GST-tagged parkin RING1 domain (R1) (domain or fragment, human, UniProt O60260 217-310, looked up)
chain: TSDKETSVALHLIATNSRNITCITCTDVRSPVLVFQCNSRHVICLDCFHLYCVTRLNDRQFVHDPQLGYSLPCVAGCPNSLIKELHHFRILGEE
